Numbering of substitutions follows the chain as printed. Read-outs that look alike come from different tables or passages of the source.
Assays:
K48-linked diubiquitin [1] = biological target: T1, K48-linked diubiquitin (human, UniProt P0CG48 1-76, isopeptide bond between Lys48 of one ubiquitin and the C-terminal Gly of the other); test: SPR Biacore, antigen immobilized
T1 construct: Boston Biochem

K48-linked diubiquitin [2] = biological target: T1, K48-linked diubiquitin; test: SPR Biacore, antigen immobilized; remark: listed apart in the source

B1: Fab apu02 (Fab, V domains shown)
VH: EVQLVESGGGLVQPGGSLRLSCAASGFNVSYSYMHWVRQAPGKGLEWVASISSYYSYTSYADSVKGRFTISADTSKNTAYLQMNSLRAEDTAVYYCARSYSYYSAIDYWGQGTLVTVSS
VL: DIQMTQSPSSLSASVGDRVTITCRASQSVSSAVAWYQQKPGKAPKLLIYSASSLYSGVPSRFSGSRSGTDFTLTISSLQPEDFATYYCQQSSYSSLFTFGQGTKVEIK
B1 gave a Kd (K48-linked diubiquitin [1]) of 12.7 nM, a koff (K48-linked diubiquitin [1]) of 0.00696 s⁻¹ and a kon (K48-linked diubiquitin [1]) of 546000 M⁻¹ s⁻¹.

B2: Fab apu2.01 (Fab, V domains shown)
VH: B1 VH with V29I, Y33S, S52Y, Y103S, S104E, I106L
VL: B1 VL with F97I
B2 showed a Kd (K48-linked diubiquitin [2]) of 23.5 nM, a koff (K48-linked diubiquitin [2]) of 0.0149 s⁻¹ and a kon (K48-linked diubiquitin [2]) of 633000 M⁻¹ s⁻¹.

B3: Fab apu2.04 (Fab, V domains shown)
VH: B1 VH with V29I, Y33S, S52Y, Y103S, S104F, A105G, I106M
VL: B1 VL with F97I
B3 was tested, and the Kd (K48-linked diubiquitin [2]) was 15.1 nM, the koff (K48-linked diubiquitin [2]) was 0.00939 s⁻¹ and the kon (K48-linked diubiquitin [2]) was 622000 M⁻¹ s⁻¹.

B4: Fab apu11 (Fab, V domains shown)
VH: EVQLVESGGGLVQPGGSLRLSCAASGFNVSYYYIHWVRQAPGKGLEWVASISSYYGYTSYADSVKGRFTISADTSKNTAYLQMNSLRAEDTAVYYCARENYWWAIDYWGQGTLVTVSS
VL: B1 VL with S92Y, S94Y, S95Y, L96P, F97I
For B4, the Kd (K48-linked diubiquitin [1]) was 19.6 nM, the koff (K48-linked diubiquitin [1]) was 0.0177 s⁻¹ and the kon (K48-linked diubiquitin [1]) was 904000 M⁻¹ s⁻¹.

B5: Fab apu13 (Fab, V domains shown)
VH: B1 VH with S32Y, Y33S, M34I, S52Y, S53P, Y103S, S104Y, A105G, I106L
VL: DIQMTQSPSSLSASVGDRVTITCRASQSVSSAVAWYQQKPGKAPKLLIYSASSLYSGVPSRFSGSRSGTDFTLTISSLQPEDFATYYCQQYSSSYYPFTFGQGTKVEIK
In the case of B5, the Kd (K48-linked diubiquitin [1]) is reported as 139 nM, the koff (K48-linked diubiquitin [1]) is reported as 0.016 s⁻¹ and the kon (K48-linked diubiquitin [1]) is reported as 115000 M⁻¹ s⁻¹.

B6: Fab apu2.07 (Fab, V domains shown)
VH: B1 VH with V29I, Y33S, S52Y, Y103H, S104L, A105G, I106M
VL: B1 VL with F97I
With B6 the Kd (K48-linked diubiquitin [2]) was 1.18 nM, the koff (K48-linked diubiquitin [2]) was 0.00318 s⁻¹ and the kon (K48-linked diubiquitin [2]) was 2.7e+06 M⁻¹ s⁻¹.

B7: Fab apu2.06 (Fab, V domains shown)
VH: B1 VH with V29I, Y33S, S52Y, S99G, Y102W, Y103F, S104N
VL: B1 VL with F97I
For B7, the Kd (K48-linked diubiquitin [2]) was 1.87 nM, the koff (K48-linked diubiquitin [2]) was 0.0024 s⁻¹ and the kon (K48-linked diubiquitin [2]) was 1.28e+06 M⁻¹ s⁻¹.

B8: Fab apu2.02 (Fab, V domains shown)
VH: B1 VH with V29I, S30F, S32G, Y33G, M34I, S52Y, I106M
VL: B1 VL with F97I
In the case of B8, the Kd (K48-linked diubiquitin [2]) is reported as 9.16 nM, the koff (K48-linked diubiquitin [2]) is reported as 0.0101 s⁻¹ and the kon (K48-linked diubiquitin [2]) is reported as 1.11e+06 M⁻¹ s⁻¹.

B9: Fab apu2.05 (Fab, V domains shown)
VH: B1 VH with V29I, Y33S, S52Y, Y103R, S104M, I106F
VL: B1 VL with F97I
B9 showed a Kd (K48-linked diubiquitin [2]) of 5.06 nM, a koff (K48-linked diubiquitin [2]) of 0.00609 s⁻¹ and a kon (K48-linked diubiquitin [2]) of 1.2e+06 M⁻¹ s⁻¹.

B10: Fab apu2.08 (Fab, V domains shown)
VH: B1 VH with V29I, Y33S, S52Y, Y103S, S104V, A105G, I106M
VL: B1 VL with F97I
B10 showed a Kd (K48-linked diubiquitin [2]) of 5.76 nM, a koff (K48-linked diubiquitin [2]) of 0.00721 s⁻¹ and a kon (K48-linked diubiquitin [2]) of 1.25e+06 M⁻¹ s⁻¹.

B11: Fab apu2.09 (Fab, V domains shown)
VH: B1 VH with V29I, Y33S, S52Y, Y103H, S104V, I106F
VL: B1 VL with F97I
B11 showed a Kd (K48-linked diubiquitin [2]) of 6.69 nM, a koff (K48-linked diubiquitin [2]) of 0.00478 s⁻¹ and a kon (K48-linked diubiquitin [2]) of 715000 M⁻¹ s⁻¹.

B12: Fab apu2.03 (Fab, V domains shown)
VH: B1 VH with V29I, Y33S, S52Y, Y103S, S104L, I106F
VL: B1 VL with F97I
B12 gave a Kd (K48-linked diubiquitin [2]) of 3.07 nM, a koff (K48-linked diubiquitin [2]) of 0.00266 s⁻¹ and a kon (K48-linked diubiquitin [2]) of 867000 M⁻¹ s⁻¹.

B13: Fab apu07 (Fab, V domains shown)
VH: EVQLVESGGGLVQPGGSLRLSCAASGFNLSYSYIHWVRQAPGKGLEWVASISSYYGSTSYADSVKGRFTISADTSKNTAYLQMNSLRAEDTAVYYCARESFYYSPAFDYWGQGTLVTVSS
VL: B1 VL with S92Y, S94Y
With B13 the Kd (K48-linked diubiquitin [1]) was 9.49 nM, the koff (K48-linked diubiquitin [1]) was 0.00993 s⁻¹ and the kon (K48-linked diubiquitin [1]) was 1.05e+06 M⁻¹ s⁻¹.

B14: Fab apu2.10 (Fab, V domains shown)
VH: B1 VH with V29I, Y33S, S52Y, Y103F, S104L, I106M
VL: B1 VL with F97I
Work on B14 yielded a Kd (K48-linked diubiquitin [2]) of 1.21 nM, a koff (K48-linked diubiquitin [2]) of 0.00399 s⁻¹ and a kon (K48-linked diubiquitin [2]) of 3.28e+06 M⁻¹ s⁻¹.

From patent US20070218069A1 (published 2007)
